PMC9050902 (Journal of molecular biology, 2022)

Biological target: LC8 (as used with syn-4mer) ( (S. cerevisiae or D. …, UniProt Q24117 1-89))
Assay: ITC

LC8 (as used with syn-4mer) (, sequence (Q24117 whole entry): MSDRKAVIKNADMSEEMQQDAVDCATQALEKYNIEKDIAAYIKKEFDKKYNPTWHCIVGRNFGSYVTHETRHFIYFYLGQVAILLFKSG

Kd: ~40 nM
B1: synthetic four-site IDP (syn-4mer) (designed binder)
chain: GSYGSRKAIDAATQTEPKETRKAIDAATQTEPKETRKAIDAATQTEPKETRKAIDAATQTEGSYGS
